Measurements from the RNAGym collection of RNA variant scans (doi:10.7554/elife.90254).

B1: LINE1-full (parent)
chain: UACGUAGGUGGUUUUCCCCUGAUAGUGCUAAGGGGGCCUGGAAGUUUGGACUGGGCAGAGCUCAACACAGCGUGGCAAAGUGGCUGUGGCUAGACUGCCUCUCUGGAUUCCUCGUCACUCAGCAGGGCAUCUCUGAGAGAAAUGCC

Variants of: B1
Assay: self-cleavage, relative activity (ratio to wild type); higher = more cleavage; in vitro, sequencing; the parent is a self-cleaving ribozyme
Variant A69U C131U has a self-cleavage of 0.03. With A69U C131A the self-cleavage was 0.07. U73A G135A gave a self-cleavage of 1.66. A69U G97A gave a self-cleavage of 0.03. With U73C A140G the self-cleavage was 1.63. Variant U73C A140U has a self-cleavage of 1.85. In the case of U73G U81G, the self-cleavage is reported as 1.05. C71U U109A showed a self-cleavage of 0.41. U73G A142U showed a self-cleavage of 0.61. Work on A69U yielded a self-cleavage of 0.06. For G72A U87A, the self-cleavage was 0.07. C71G U130C gave a self-cleavage of 0.45. For U73C U87A, the self-cleavage was 0.31. With U73C U87C the self-cleavage was 0.2. With U73C G105A the self-cleavage was 2.03. Work on U73C G105U yielded a self-cleavage of 1.32. In the case of A69G U134C, the self-cleavage is reported as 0.44. A69G U134A gave a self-cleavage of 0.37. U73A U112G gave a self-cleavage of 1.53. Variant U73A U112C has a self-cleavage of 1.56. U73A U112A showed a self-cleavage of 2.03. For G72A U109A, the self-cleavage was 1.37. In the case of G70U U81C, the self-cleavage is reported as 0.3. U73A C76U gave a self-cleavage of 2.51. A69U A94U showed a self-cleavage of 0.05. Work on C71G A124G yielded a self-cleavage of 0.25. For C71U, the self-cleavage was 0.86. C71A showed a self-cleavage of 0.2. C71G gave a self-cleavage of 0.27. For G72A A140G, the self-cleavage was 1.16. U73C U109C gave a self-cleavage of 0.31. With U73A G82A the self-cleavage was 1.74. With U73A G82U the self-cleavage was 1.65. Variant G72C C111U has a self-cleavage of 1.1. A69U C120U showed a self-cleavage of 0.07. A69G U108A gave a self-cleavage of 0.07. U73C U104C showed a self-cleavage of 0.94. Work on U73C U104G yielded a self-cleavage of 1.71. For U73C U104A, the self-cleavage was 1.93. With A69U U73G the self-cleavage was 0.31. Work on A69U U73A yielded a self-cleavage of 0.04. Variant A69U U73C has a self-cleavage of 0.05. Variant U73C U100C has a self-cleavage of 1.99. For U73C U100A, the self-cleavage was 1.81. G70A U91A showed a self-cleavage of 0.1. For G70A A140G, the self-cleavage was 0.06. With U73G A136G the self-cleavage was 1.84. For G72A A138G, the self-cleavage was 1.51. Work on U73G U102A yielded a self-cleavage of 1.22. In the case of G70A A138C, the self-cleavage is reported as 0.32. C71U U100C gave a self-cleavage of 1.31. C71U U100A gave a self-cleavage of 0.04. Work on G70U A121G yielded a self-cleavage of 0.27. Work on U73A A129G yielded a self-cleavage of 1.67. U73A A129U gave a self-cleavage of 1.7. With U73C C90A the self-cleavage was 0.06. With U73A C113A the self-cleavage was 0.23. U73C C76U showed a self-cleavage of 2.52. A69G C128A showed a self-cleavage of 0.14. In the case of U73C A136U, the self-cleavage is reported as 1.76. A69G U73C showed a self-cleavage of 0.59. Work on G70U A79G yielded a self-cleavage of 0.03. G72A A107G gave a self-cleavage of 1.36. Work on U73C A142G yielded a self-cleavage of 1.82. U73C A142U gave a self-cleavage of 1.24. U73G A107U gave a self-cleavage of 1.59. With U73C A121U the self-cleavage was 1.89. Variant A69G C133A has a self-cleavage of 0.47. Variant C71U A129G has a self-cleavage of 0.91. U73A gave a self-cleavage of 1.46. In the case of U73G, the self-cleavage is reported as 1.29. With U73C the self-cleavage was 1.72. Work on G70A A107G yielded a self-cleavage of 0.08. With U73C U112G the self-cleavage was 2.63. Work on A69G U91A yielded a self-cleavage of 0.16. U73C C111U gave a self-cleavage of 2.14. In the case of G72C A94G, the self-cleavage is reported as 0.18. For G72A G135U, the self-cleavage was 1.2. In the case of U73A A138U, the self-cleavage is reported as 1.72. In the case of U73A A138G, the self-cleavage is reported as 1.75. Variant U73C G125U has a self-cleavage of 2.15. In the case of A69G C98U, the self-cleavage is reported as 0.04. With U73C C103U the self-cleavage was 1.61.
